Results published in the supplement of paper PMC9170038.

System: MS2 coat protein
Test: apparent KD of MS2 coat protein; higher = weaker reporter binding
Conditions: Eterna round: R107
How it was run: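 For every design, apparent KD is the median of normalised binding-curve fits from its clusters. The RNA switches were transcribed on-chip from Illumina sequencing clusters and titrated with SNAP-549-labelled MS2 coat protein (twofold steps, 0.7 or 1.5 nM to 3 µM; 0.8–1.5 h to 10–20 min per step). Titrations used 100 mM Tris-HCl pH 7.5, 80 mM KCl, 4 mM MgCl2, without or with constant ligand.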

[1] = input ligand: theophylline 20 uM
[2] = input ligand: theophylline 2 mM
[3] = input ligand: tryptophan 2.4 mM

Sequence	apparent KD of MS2 coat protein (input ligand: arginine 13.2 mM) [µM]	apparent KD of MS2 coat protein [1] [µM]	apparent KD of MS2 coat protein [2] [µM]	apparent KD of MS2 coat protein (input ligand: none) [µM]	apparent KD of MS2 coat protein [3] [µM]
GCUAGGUCAUCGGCCGCCACUAACGAUGGCUCCGACAUGAGGAUCACCCAUGUGCCACAUGCGCAUAGGACCGGGAUGACCUAGC [SSTB NP+V+V2 #2]	0.0168	0.0227	0.0198	–	–
GCUAGGUCUACGGCCGCCACUAGACGUGGGUUUAACAUGAGGAUCACCCAUGUGCUACAGGCGCAUAGGACCGGGUAGACCUAGC [SSTB NP+V+V2 #10 +-Same Structure]	0.532	0.713	0.928	0.414	0.0513
GCUAGUGGCAGAAGGAGCGACAUUUUAAGUGGUCGAUACAUGAGGAUCACCCAUGUACUAUGUCAGGUAGGUCGCUGCCACUAGC [EAB NP+V+V2 #3 +-Same Structure]	0.0391	0.0388	0.0429	0.0348	0.034
GCUAGUGGCAGAAGGAGCGAGGCGACAUACGGGUACAUGAGGAUCACCCAUGUGGUGUGUCCUCAGGUAGGUCGCUGCCACUAGC [SSAB NP+V+V2 #12]	0.134	0.152	0.145	0.0747	0.521
GCUAGUGGCAGAAGGAGCGAGGCUACAUACGGGUACAUGAGGAUCACCCAUGUGGUGUGUACUCAGGUAGGUCGCUGCCACUAGC [SSAB NP+V+V2 #13 Same Structure]	0.193	0.754	0.977	0.921	0.467
GCUGCAGCUACGGCCGCCACUGUUACGUGAGACAUGAGGAUCACCCAUGUUGAUGUUUUACAGAAUAGGACCGGGUAGUUGUAGU [E 1.1]	0.00884	0.0113	0.00987	–	–
GCUGCCAUACGAAGGAGCGCUGGUGUAGUGCGGCGAACAUGAGGAUCACCCAUGUGGCAGCAGCAGGUAGGUCGCGUAUGGCAGC [EAB #14]	0.0123	0.0146	0.0126	0.0112	0.011
GCUGGACUUUCGGCCGCCACUGAGAGAGUCGUGUGAACAUGAGGAUCACCCAUGUAAUAUAUAUACAGGACCGGGAGGGUUGUGC [4.P]	0.0112	0.0147	0.0116	–	–
GCUGUAAGUGCAGAUACCAGCAAGUGAUAUUUCAUAUGACAUGAGGAUCACCCAUGUAACUGCCCUUGGCAGCUGCACUUACAGC [SSTHB #10]	0.114	0.122	–	–	0.241
GGAAAAGAAAGAAAAGAAAUCCCUCCCUCCCGAGGACCGGUACGGCCGCCACUCGCCCUCCCUCCCACAUGAGGAUCACCCAUGU [Exclusion - Trytophan A]	0.0237	0.0313	0.0278	–	–
GGACUAACCAGAAGGAGCGACACAAAGCAGAAACUGCAUCCUCCGCACGAGGAUCACCCGUGUCAGGUAGGUCGCUGGUUAGUCG [ArgBX 28]	0.054	0.057	0.0504	0.0502	0.0417
GGACUAACCAGAAGGAGCGACACGCAGAAACUGCAAAAUCCUCCACACGAGGAUCACCCGUGUCAGGUAGGUCGCUGGUUAGUCG [ArgXB 16 #Zipper #MS2Left #StaticStem #Blueprint]	0.0446	0.0834	0.0861	0.0753	0.0538
GGACUAACCAGAAGGAGCGACGCAAAGCAGAAACUGCAUCCUCCGCACGAGGAUCACCCGUGUCAGGUAGGUCGCUGGUUAGUCG [ArgBX 28]	0.0188	0.0247	0.0263	0.0177	0.0217
GGACUAACCAGAAGGAGCGACGCGCAGAAACUGCAAAAUCCUCCGCACGAGGAUCACCCGUGUCAGGUAGGUCGCUGGUUAGUCG	0.0219	0.0345	0.0326	0.0296	0.0277
GGACUAACCAGAAGGAGCGACGCGCAGAAACUGCAAUUUCCUCCACACGAGGAUCACCCGUGUCAGGUAGGUCGCUGGUUAGUCG	0.015	0.0187	0.0176	0.0174	0.0166
GGACUAACCAGAAGGAGCGGCACAGCAGAAACUGCAAAUCCUCCGCACGAGGAUCACCCGUGUCAGGUAGGUCGCUGGUUAGUCG [ArgBX 28]	0.0335	0.0554	0.0494	0.0371	0.0384
GGACUAACCAGAAGGAGCGGCGCGCAGAAACUGCAAAUUCCUCCGCACGAGGAUCACCCGUGUCAGGUAGGUCGCUGGUUAGUCG [ArgBX 28]	0.0142	0.0179	0.0166	0.0142	0.0175
GGACUAACCAGAAGGAGCGGCGCGCAGAAACUGCAAUUUCCUCCACACGAGGAUCACCCGUGUCAGGUAGGUCGCUGGUUAGUCG [ArgBX 29]	0.0131	0.0151	0.0129	0.0114	0.0123
GGAGGGACCAGAAGGAGCGACAUGAGGAUCACCCAUGUCUCCCGUUAUGGGAGUUCUUUAGGUCAGGUAGGUCGCUGGUCCCUCC [#1 Exclusion - Arginine B Attempt #6 (Inspired by Omei)]	0.0557	0.0873	0.138	0.158	0.0861
GGAGGUACCCGAAGGAGCGACAUGAGGAUCACCCAUGUCUCCCGUUAUGGGAGUUCUUUAGGUCAGGUAGGUCGCGGGUACCUCC [#1 Exclusion - Arginine B Attempt #2 (Inspired by Omei)]	0.0793	0.114	0.202	0.0977	0.097

Sequence	apparent KD of MS2 coat protein (input ligand: arginine 13.2 mM) [µM]	apparent KD of MS2 coat protein [1] [µM]	apparent KD of MS2 coat protein [2] [µM]	apparent KD of MS2 coat protein (input ligand: none) [µM]	apparent KD of MS2 coat protein [3] [µM]
GGAGGUGAGAGAAGGAGCGGAAGUUUCGUUACAACAUGAGGAUCACCCAUGUAACGUUUAGUCCAGGUAGGUCGCUCUCGGGCGG [jbbgmullin]	0.0192	0.0252	0.0307	0.0163	0.0269
GGAUAGGACAGAAGGAGCGACAUGAGGAUCACCCAUGUGGAUCAACGACGAAAGUCGCCAUGUCAGGUAGGUCGCUGUCCUAUCG [ArgXB 8 #MS2Gate #StaticStem #MS2LeftOffAptamer]	0.139	0.549	0.969	0.511	0.918
GGAUAUAGGGAACCGUAUCCGAAACCUGAAGGAGCGGCCGAAAGGCCAGGUAGGUCGCGGGAACAUGAGGAUCACCCAUGUAUUC [dancer]	0.0311	0.0718	0.0592	0.0573	0.0554
GGAUGCGGCACGGCCGCCACUGCGGUGGUGUGACAUGAGGAUCACCCAUGUUGUCAUGCGGCCCUUAGGACCGGGUGGCGUUUCC [#1 Exclusion - Tryptophan B Attempt #20 (HarryS)]	0.038	0.0736	0.0667	0.0567	0.0629
GGAUUAGAGGCGGCCGCCACUGGAACAUGAGGAUCACCCAUGUAGUGCAUGUAAUUAACCUCGAUCAGGACCGGGCCGAUAGUCA [Exclusion - Tryptophan B / A]	0.0519	0.0852	0.0672	–	–
GGCACAUAGUCGGCCGCCACUAGGCUGUAGUGGGAGGACAUGAGGAUCACCCAUGUAUUUGGUACUAGGACCGGGACUAUGUGCC [Lion]	0.0623	0.259	0.274	0.191	0.258
GGCACAUAGUCGGCCGCCACUAGUAUAAGAUGGAAUAACAUGAGGAUCACCCAUGUAAAAGGGACUAGGACCGGGACUAUGUGCC [Rat]	0.0122	0.0182	0.0154	0.013	0.0125
GGCACAUAGUCGGCCGCCACUAGUGGGAAAUGGGAGAACAUGAGGAUCACCCAUGUAUAAUAGCCUAGGACCGGGACUAUGUGCC [Elk]	0.0642	0.227	0.113	0.188	0.0553
GGCACAUAGUCGGCCGCCACUAGUGGGAAAUGGGAGAACAUGAGGAUCACCCAUGUUGCGUAGCCUAGGACCGGGACUAUGUGCC [Hippopotamus]	0.0291	0.0376	0.0332	0.0301	0.035
GGCACCAGGAGAAGGAGCGUGAAGACAUGAGGAUCACCCAUGUAGAGGCCCGGACAGGGUUCGCAGGUAGGUCGCUCCUGGUGCC [#1 Same State - Arginine B Attempt #10 (HarryS)]	0.0204	0.245	0.122	0.00829	0.0472
GGCCAUGGAAACAUGGCGGCGGCAUAAGCGCGAGGACCGGUACGGCCGCCACUCGGGCGACAUGAGGAUCACCCAUGUUCCUCAU [ETA NP+V+V2 #23 Same Structure]	0.105	0.413	0.529	–	–
GGCCCUGCGAGCGCUCGCAGGGCCGCGGAUACCAGCGAGGUCCAUCGCCCUUGGCAGCCGAACAUGAGGAUCACCCAUGUCGGUU [#1 Same State - Theophylline A Attempt #12 (HarryS)]	0.00598	0.0123	0.0144	0.0112	0.00996
GGCCGUGCGAGCGCUCGCGUGGCCGCGGAUACCAGCGAGGUCCAUCGCCCUUGGCAGCCGAACAUGAGGAUCACCCAUGUCGGUA [#1 Same State - Theophylline A Attempt #14 (HarryS)]	0.00893	0.0152	0.0173	0.011	0.00977
GGCCUGUGGAGCGAUACCAGCUUGAGUGUACUGGCCAGGUACAUGAGGAUCACCCAUGUAAGCCCUUGGCAGCGCUCCAGAGGCC [#1 Exclusion - Theophylline B Attempt #18 (HarryS)]	0.00941	0.0164	0.0567	0.0121	0.0132
GGCCUGUGGUGCGAUACCAGCUUGAGUGUACUGGCCAGGUACAUGAGGAUCACCCAUGUAAGCCCUUGGCAGCGCGUCAGAGGCC [#1 Exclusion - Theophylline B Attempt #19 (HarryS)]	0.0135	0.0169	0.0303	0.00882	0.0121
GGCCUUGCGGGCGCCCGCAAGGCCGCGGAUACCAGCGAGGUCCAUCGCCCUUGGCAGCCGAACAUGAGGAUCACCCAUGUCGGUU [Same State - Theophylline A Attempt #6 (HarryS)]	0.00984	0.0137	–	–	0.0113
GGCGCGCGCCAACAUGAGGAUCACCCAUGUCGAGGACCGGUACGGCCGCCACUCGAACGAGUGAAGCGCGCGCGCGGAGCGCCGC [Taa]	0.024	0.0478	0.047	0.0371	0.0601
GGCGCGGUGAUGGAAGCCGAACGCUAGGUACGAGGACCGGUACGGCCGCCACUCGUAGUCCUGGGACAUGAGGAUCACCCAUGUA [Same State Trp A GF20]	0.0393	0.109	0.096	0.119	0.0512
GGCGGACUUAUAGAUACCAGCACAUGAGGAUCACCCAUGUAUGGUCGCACCUCAGUCCUGUGCCCUUGGCAGCUAUAAUAGAUUU [Esxeanbi]	0.0208	0.0498	–	–	0.0164
